{"source": "patent EP0556111A1", "key": {"[1]": {"target": "reagent Mα2-3/peroxidase, obtained by classical chemical coupling"}, "[2]": {"target": "hybrid F(ab)₂-PhoA (complex hybrid protein alkaline phosphatase/F(ab)₂ of antibody Mα2-3) (E. coli) [phosphatase: P00634]"}}, "note": "pIC50: −log10 of the molar value."}
{"substance": "toxin alpha (from UniProt P01426)", "values": [{"measurement": "pIC50", "setting": "[1]", "result": 8.05}, {"measurement": "pIC50", "setting": "[2]", "result": 7.70}]}
